Data on one variant can be found in IntAct's records for PubMed 33097660.

B1: ORF6 protein (SARS-CoV-2), P0DTC6 (parent)
chain: MFHLVDFQVTIAEILLIIMRTFKVSIWNLDYIINLIIKNLSKSLTENKYSQLDEEQPMEID

The variants in the first assay derive from B1. Particulars: with ima5_human KPNA1, P52294.
ima5_human KPNA1, P52294, sequence (P52294 whole entry): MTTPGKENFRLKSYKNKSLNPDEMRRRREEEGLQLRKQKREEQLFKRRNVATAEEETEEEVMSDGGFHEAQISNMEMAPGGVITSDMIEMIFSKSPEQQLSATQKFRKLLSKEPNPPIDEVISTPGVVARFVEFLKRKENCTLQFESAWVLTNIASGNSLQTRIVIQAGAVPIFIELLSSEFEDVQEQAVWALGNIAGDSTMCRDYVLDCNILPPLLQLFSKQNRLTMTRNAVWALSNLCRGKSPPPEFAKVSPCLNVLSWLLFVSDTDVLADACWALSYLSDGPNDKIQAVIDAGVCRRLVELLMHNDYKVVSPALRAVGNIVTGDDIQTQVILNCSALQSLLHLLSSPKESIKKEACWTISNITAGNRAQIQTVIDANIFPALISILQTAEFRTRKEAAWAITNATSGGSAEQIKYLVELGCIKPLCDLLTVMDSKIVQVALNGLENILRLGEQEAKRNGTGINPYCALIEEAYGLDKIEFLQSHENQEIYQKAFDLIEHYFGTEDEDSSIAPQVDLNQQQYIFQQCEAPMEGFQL
Take M58R: the “effect of a mutation on the interaction” value is listed as “with no effect”.

Variants of B1 are the subject of a further assay. To be noted: with ima1_human KPNA2, P52292.
For M58R, the “effect of a mutation on the interaction” value is given as “with no effect”.

The variants in another assay derive from B1. Particulars: with nup98_human NUP98, P52948.
nup98_human NUP98, P52948, sequence (P52948 whole entry): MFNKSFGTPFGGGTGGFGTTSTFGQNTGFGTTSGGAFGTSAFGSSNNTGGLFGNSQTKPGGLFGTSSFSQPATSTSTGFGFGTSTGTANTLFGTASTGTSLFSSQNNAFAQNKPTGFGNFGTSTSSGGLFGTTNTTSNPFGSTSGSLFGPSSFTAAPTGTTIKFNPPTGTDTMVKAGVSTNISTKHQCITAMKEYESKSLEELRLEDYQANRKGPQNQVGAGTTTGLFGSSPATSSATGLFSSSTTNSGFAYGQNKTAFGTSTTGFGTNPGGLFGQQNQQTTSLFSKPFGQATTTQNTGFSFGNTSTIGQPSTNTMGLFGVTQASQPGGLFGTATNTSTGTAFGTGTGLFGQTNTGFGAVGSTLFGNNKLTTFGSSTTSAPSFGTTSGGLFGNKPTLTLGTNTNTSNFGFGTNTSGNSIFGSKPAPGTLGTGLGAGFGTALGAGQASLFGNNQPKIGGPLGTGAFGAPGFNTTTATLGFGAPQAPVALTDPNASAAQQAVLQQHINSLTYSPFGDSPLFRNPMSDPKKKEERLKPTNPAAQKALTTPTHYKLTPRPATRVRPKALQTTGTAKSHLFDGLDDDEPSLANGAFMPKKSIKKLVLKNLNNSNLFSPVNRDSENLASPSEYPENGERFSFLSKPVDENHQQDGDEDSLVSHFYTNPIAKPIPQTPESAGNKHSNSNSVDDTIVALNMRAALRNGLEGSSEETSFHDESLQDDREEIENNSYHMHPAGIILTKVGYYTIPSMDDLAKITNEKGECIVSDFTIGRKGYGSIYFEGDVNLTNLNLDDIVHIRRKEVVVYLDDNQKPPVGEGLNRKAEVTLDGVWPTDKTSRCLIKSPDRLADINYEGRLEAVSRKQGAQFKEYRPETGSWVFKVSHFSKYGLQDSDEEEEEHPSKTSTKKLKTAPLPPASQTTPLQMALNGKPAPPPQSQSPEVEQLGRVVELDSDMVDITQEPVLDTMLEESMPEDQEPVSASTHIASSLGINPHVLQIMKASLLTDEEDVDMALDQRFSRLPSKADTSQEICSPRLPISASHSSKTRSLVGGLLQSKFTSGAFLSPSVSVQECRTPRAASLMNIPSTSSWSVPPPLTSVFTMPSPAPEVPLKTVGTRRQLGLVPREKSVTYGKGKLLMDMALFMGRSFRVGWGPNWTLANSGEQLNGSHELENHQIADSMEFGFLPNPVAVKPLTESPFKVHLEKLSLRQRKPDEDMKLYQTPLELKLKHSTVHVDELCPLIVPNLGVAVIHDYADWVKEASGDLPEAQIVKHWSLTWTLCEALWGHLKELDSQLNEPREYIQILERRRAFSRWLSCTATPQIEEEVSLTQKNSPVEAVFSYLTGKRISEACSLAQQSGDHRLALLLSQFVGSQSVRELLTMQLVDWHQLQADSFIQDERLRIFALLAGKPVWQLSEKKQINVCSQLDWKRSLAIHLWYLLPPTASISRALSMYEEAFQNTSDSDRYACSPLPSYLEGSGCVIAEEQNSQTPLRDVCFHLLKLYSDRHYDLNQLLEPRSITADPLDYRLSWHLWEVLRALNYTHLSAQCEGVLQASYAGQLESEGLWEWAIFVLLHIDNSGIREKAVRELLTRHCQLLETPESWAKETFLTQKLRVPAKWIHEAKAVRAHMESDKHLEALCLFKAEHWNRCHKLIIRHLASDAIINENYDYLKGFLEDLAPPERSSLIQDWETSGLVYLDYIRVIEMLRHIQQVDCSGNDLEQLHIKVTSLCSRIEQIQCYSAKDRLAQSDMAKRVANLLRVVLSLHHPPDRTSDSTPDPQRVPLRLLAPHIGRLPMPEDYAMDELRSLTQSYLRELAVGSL
On to M58R, for which the “effect of a mutation on the interaction” value is “disrupting interaction strength”.
